Data: IntAct's records for PubMed 29039417

B1: Protein PTHB1 (Homo sapiens), Q3SYG4 (parent)
chain: MSLFKARDWWSTILGDKEEFDQGCLCLANVDNSGNGQDKIIVGSFMGYLRIFSPHPAKTGDGAQAEDLLLEVDLRDPVLQVEVGKFVSGTEMLHLAVLHSRKLCVYSVSGTLGNVEHGNQCQMKLMYEHNLQRTACNMTYGSFGGVKGRDLICIQSMDGMLMVFEQESYAFGRFLPGFLLPGPLAYSSRTDSFLTVSSCQQVESYKYQVLAFATDADKRQETEQQKLGSGKRLVVDWTLNIGEQALDICIVSFNQSASSVFVLGERNFFCLKDNGQIRFMKKLDWSPSCFLPYCSVSEGTINTLIGNHNNMLHIYQDVTLKWATQLPHIPVAVRVGCLHDLKGVIVTLSDDGHLQCSYLGTDPSLFQAPNVQSRELNYDELDVEMKELQKIIKDVNKSQGVWPMTEREDDLNVSVVVSPNFDSVSQATDVEVGTDLVPSVTVKVTLQNRVILQKAKLSVYVQPPLELTCDQFTFEFMTPDLTRTVSFSVYLKRSYTPSELEGNAVVSYSRPTDRNPDGIPRVIQCKFRLPLKLICLPGQPSKTASHKITIDTNKSPVSLLSLFPGFASQSDDDQVNVMGFHFLGGARITVLASKTSQRYRIQSEQFEDLWLITNELILRLQEYFEKQGVKDFACSFSGSIPLQEYFELIDHHFELRINGEKLEELLSERAVQFRAIQRRLLARFKDKTPAPLQHLDTLLDGTYKQVIALADAVEENQGNLFQSFTRLKSATHLVILLIALWQKLSADQVAILEAAFLPLQEDTQELGWEETVDAAISHLLKTCLSKSSKEQALNLNSQLNIPKDTSQLKKHITLLCDRLSKGGRLCLSTDAAAPQTMVMPGGCTTIPESDLEERSVEQDSTELFTNHRHLTAETPRPEVSPLQGVSE
partner: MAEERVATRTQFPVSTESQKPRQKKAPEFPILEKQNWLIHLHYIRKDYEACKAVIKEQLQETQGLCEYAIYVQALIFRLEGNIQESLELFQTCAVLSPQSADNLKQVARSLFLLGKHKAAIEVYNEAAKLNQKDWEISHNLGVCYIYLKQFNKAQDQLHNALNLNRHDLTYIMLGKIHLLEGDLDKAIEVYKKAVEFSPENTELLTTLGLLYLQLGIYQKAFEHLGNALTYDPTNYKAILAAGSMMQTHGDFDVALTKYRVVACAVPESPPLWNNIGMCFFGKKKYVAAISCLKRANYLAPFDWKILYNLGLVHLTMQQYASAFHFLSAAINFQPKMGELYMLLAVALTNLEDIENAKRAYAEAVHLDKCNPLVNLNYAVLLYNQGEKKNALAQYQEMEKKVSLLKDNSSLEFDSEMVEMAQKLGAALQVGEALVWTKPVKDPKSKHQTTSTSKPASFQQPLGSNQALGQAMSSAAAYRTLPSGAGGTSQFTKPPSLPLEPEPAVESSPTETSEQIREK

Variants of: B1
Conditions: with bbs4_human BBS4, Q96RK4

Row | Variant | effect of a mutation on the interaction
1 | R678E | with no effect
2 | R678K | disrupting interaction strength
3 | R678A | with no effect
4 | R678H | disrupting interaction strength
5 | R678G | disrupting interaction strength
6 | T702R | disrupting interaction strength
7 | T702E | with no effect
8 | T702K | with no effect
9 | T702C | disrupting interaction strength
10 | T702A | with no effect
11 | A690V | disrupting interaction strength
12 | A690E | with no effect
13 | A690K | disrupting interaction strength
14 | L681A | with no effect
15 | L681K | with no effect
16 | L681E | with no effect
17 | F684E | with no effect
18 | F684K | with no effect
19 | F684A | with no effect
20 | R683K | with no effect
21 | R683A | with no effect
22 | R683E | with no effect
23 | R679W | disrupting interaction strength

Row | Variant | effect of a mutation on the interaction
24 | R679A | with no effect
25 | R679L | disrupting interaction strength
26 | R679K | with no effect
27 | R679E | with no effect
28 | P691E | with no effect
29 | P691L | disrupting interaction strength
30 | P691A | with no effect
31 | P691S | disrupting interaction strength
32 | P691K | with no effect
33 | K685E | disrupting interaction strength
34 | K685A | with no effect
35 | T688K | with no effect
36 | T688A | with no effect
37 | T688E | with no effect
38 | V706E | with no effect
39 | V706A | with no effect
40 | V706K | with no effect
41 | P689K | with no effect
42 | P689E | with no effect
43 | P689A | with no effect
44 | L692K | with no effect
45 | L692A | disrupting interaction strength
46 | L692E | with no effect

Row | Variant | effect of a mutation on the interaction
47 | G701A | with no effect
48 | G701K | with no effect
49 | G701E | disrupting interaction strength
50 | Q677A | with no effect
51 | Q677Y | disrupting interaction strength
52 | Q677E | with no effect
53 | Q677K | with no effect
54 | L680E | with no effect
55 | L680A | with no effect
56 | L680K | with no effect
57 | Y703H | disrupting interaction strength
58 | Y703A | with no effect
59 | Y703K | with no effect
60 | Y703E | with no effect
61 | L699K | disrupting interaction strength
62 | L699A | with no effect
63 | L699E | with no effect
64 | D700A | with no effect
65 | D700K | with no effect
66 | D700E | with no effect
67 | L695E | with no effect
68 | L695A | with no effect
69 | L695M | disrupting interaction strength

Row | Variant | effect of a mutation on the interaction
70 | L695K | with no effect
71 | L698A | with no effect
72 | L698S | disrupting interaction strength
73 | L698E | disrupting interaction strength
74 | L698K | with no effect
75 | T697E | with no effect
76 | T697A | with no effect
77 | T697K | with no effect
78 | T697C | disrupting interaction strength
79 | K704E | with no effect
80 | K704A | with no effect
81 | I707E | with no effect
82 | I707K | with no effect
83 | I707A | with no effect
84 | Q705E | with no effect
85 | Q705A | with no effect
86 | Q705M | disrupting interaction strength
87 | Q705K | with no effect
88 | H694K | with no effect
89 | H694A | with no effect
90 | H694Y | disrupting interaction strength
91 | H694E | disrupting interaction strength
92 | A675E | with no effect

Row | Variant | effect of a mutation on the interaction
93 | A675H | disrupting interaction strength
94 | A675K | with no effect
95 | A682K | with no effect
96 | A682E | with no effect
97 | I676E | with no effect
98 | I676A | with no effect
99 | I676K | with no effect
100 | K687A | with no effect
101 | K687E | with no effect
102 | D696N | disrupting interaction strength
103 | D696V | disrupting interaction strength
104 | D696A | with no effect
105 | D696E | with no effect
106 | D696K | with no effect
107 | Q693A | disrupting interaction strength
108 | Q693K | with no effect
109 | Q693E | with no effect
110 | D686K | with no effect
111 | D686A | with no effect
112 | D686E | with no effect

Next, values leading:

Row | effect of a mutation on the interaction | Variant
113 | with no effect | T725A
114 | with no effect | T725K
115 | with no effect | T725E
116 | with no effect | A708E
117 | with no effect | A708K
118 | with no effect | L709A
119 | with no effect | L709E
120 | with no effect | L709K
121 | with no effect | Q722K
122 | with no effect | Q722E
123 | with no effect | Q722A
124 | with no effect | R726K
125 | with no effect | R726A
126 | with no effect | R726E
127 | with no effect | D711E
128 | with no effect | D711A
129 | with no effect | D711K
130 | with no effect | E714A
131 | with no effect | E714K

Row | effect of a mutation on the interaction | Variant
132 | with no effect | G718A
133 | with no effect | G718K
134 | disrupting interaction strength | G718T
135 | with no effect | G718E
136 | disrupting interaction strength | G718S
137 | disrupting interaction strength | G718D
138 | with no effect | E715A
139 | disrupting interaction strength | E715K
140 | with no effect | F724A
141 | disrupting interaction strength | F724E
142 | with no effect | F724K
143 | with no effect | L720E
144 | with no effect | L720K
145 | with no effect | L720A
146 | with no effect | A710E
147 | with no effect | A710K
148 | with no effect | N716A
149 | with no effect | N716K
150 | with no effect | N716E

Row | effect of a mutation on the interaction | Variant
151 | disrupting interaction strength | F721K
152 | with no effect | F721E
153 | with no effect | F721A
154 | with no effect | Q717K
155 | with no effect | Q717A
156 | with no effect | Q717E
157 | disrupting interaction strength | S723P
158 | with no effect | S723E
159 | with no effect | S723A
160 | disrupting interaction strength | S723K
161 | with no effect | A712K
162 | with no effect | A712E
163 | with no effect | N719E
164 | with no effect | N719K
165 | disrupting interaction strength | N719A
166 | with no effect | V713A
167 | with no effect | V713E
168 | with no effect | V713K
